Data taken from publication PMC6754429, “Structure of full-length wild-type human phenylalanine hydroxylase by small angle X-ray scattering reveals substrate-induced conformational stability” (Scientific Reports, 2019).

Molecular target: the molecule itself
Experiment: SEC-SAXS; Shodex KW-404 column coupled to SAXS (B21, Diamond); 12 mg/mL hPAH injected; 20 mM Hepes pH 7.0, 200 mM NaCl; 20 °C; no L-Phe (hPAH^free); molecular mass from the Porod volume

B1: Recombinant full-length wild-type human phenylalanine hydroxylase (His6-hPAH) (enzyme, UniProt P00439 1-452, looked up)
chain: MSTAVLENPGLGRKLSDFGQETSYIEDNCNQNGAISLIFSLKEEVGALAKVLRLFEENDVNLTHIESRPSRLKKDEYEFFTHLDKRSLPALTNIIKILRHDIGATVHELSRDKKKDTVPWFPRTIQELDRFANQILSYGAELDADHPGFKDPVYRARRKQFADIAYNYRHGQPIPRVEYMEEEKKTWGTVFKTLKSLYKTHACYEYNHIFPLLEKYCGFHEDNIPQLEDVSQFLQTCTGFRLRPVAGLLSSRDFLGGLAFRVFHCTQYIRHGSKPMYTPEPDICHELLGHVPLFSDRSFAQFSQEIGLASLGAPDEYIEKLATIYWFTVEFGLCKQGDSIKAYGAGLLSSFGELQYCLSEKPKLLPLELEKTAIQNYTVTEFQPLYYVAESFNDAKEKVRNFAATIPRPFSVRYDPYTQRIEVLDNTQQLKILADSINSEIGILCSALQKIK
notes: human phenylalanine hydroxylase, full-length wild type; The same protein was measured without L-Phe (hPAH^free) and with 1 mM L-Phe (hPAH^Phe); also called hPAH^free; hPAH^Phe; source: E. coli Top10 (pTrcHis-hPAH plasmid), purified (Ni-NTA; PD-10 into SEC buffer, then the beamline SEC column); not shown: His6 (with a 26-amino acid linker), N-terminal, kept
- stoichiometry N: 4
